Laboratory results published in US20050244939A1 (AJINOMOTO, published 2005).

Molecular target: the molecule itself
Assay: X-ray crystal structure (self-association of subunits)
Experimental: The crystals were moved into 0.15M sodium citrate buffer (pH 5.6) containing 25% glycerol and 1.5M ammonium phosphate, and rapidly cooled to −173° C. by blowing nitrogen gas. The X-ray diffraction data of PtALD native crystals was collected using an X-ray diffractometer R-AXIS V++ (Rigaku Co., Ltd.) at the Photon Factory Beamline 6B of the High Energy Accelerator Research Organization (Tsukuba, Japan). The X-ray wavelength was fixed at 1.0 angstrom and the distance from the crystal to an imaging plate detector was 180 mm. Exposure time and an oscillation angle per one imaging plate frame were 120 sec and 0.8°, respectively, and the data for 150 frames was collected. In the crystallographic parameters, the space group was P6₃22, and the lattice constants were a=94.38 angstrom and c=111.49 angstrom. The asymmetric unit contains one aldolase molecule, and the water content of the crystal was 60%. The crystal was diffracted to approximately 1.5 angstrom resolution. The data processing was made with a program Crystal Clear (Rigaku Co., Ltd.). The Rmerge, which indicates the quality of the data, was 0.097 between 40.0-1.5 angstrom resolution, and 0.260 between 1.55-1.50 angstrom resolution in the most outer shell. The completeness of the data was 99.2% between 40.0-1.5 angstrom resolution, and 99.9% between 1.55-1.50 angstrom resolution in the most outer shell. […]

B1: aldolase derived from Pseudomonas taetrolens ATCC4683 (PtALD), wild-type (enzyme)
chain: MSLPGSRIYPSPPQAPRSLLDAFQNVVTPHISDNLGRHIGARGLTRYNHTGKLVGTALTVKTRPGDNLYIYKALTLIEPGHVLVIDAQGDATNAVIGELIKLYAQQRGCVGFVVDGAIRDVASFEDTPCYARSVVHCGPYKSGPGEINVPVSIGGMIINPGDIIVGDEDGLVAFSPDHAEQVLVKAREHDAHEQQVKAEIATGAIDQSWLDKVLEKAGLAN
notes: It was purified and crystallised; The asymmetric unit contains one subunit; also called IHOG aldolase; recombinant PtALD
B1: binds.
